Measured values from patent EP4592315A1 (Biotheus Inc., dated 2024).

What was measured:
[1] = target: T1, human 4-1BB (human, UniProt Q07011 24-255); assay: flow cytometry on CHOS-h4-1BB cells (overexpressing human 4-1BB), anti-human IgG-Fc PE
T1 construct: whole, on cells; also called h4-1BB; CD137

[2] = target: T2, human FcγRIIb (human, UniProt P31994 43-310); assay: flow cytometry on CHOS-hCD32b cells (overexpressing human FcγRIIb), anti-human IgG-Fc PE
T2 construct: whole, on cells; also called hCD32b; CD32b
T2 sequence (looked up): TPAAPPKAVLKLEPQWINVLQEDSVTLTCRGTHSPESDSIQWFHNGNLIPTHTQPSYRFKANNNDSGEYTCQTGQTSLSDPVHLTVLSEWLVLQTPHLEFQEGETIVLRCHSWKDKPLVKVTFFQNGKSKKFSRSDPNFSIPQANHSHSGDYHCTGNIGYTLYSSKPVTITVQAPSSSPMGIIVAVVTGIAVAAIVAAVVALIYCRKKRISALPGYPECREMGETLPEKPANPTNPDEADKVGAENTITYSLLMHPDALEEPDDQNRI

T1 sequence (Q07011 24-255): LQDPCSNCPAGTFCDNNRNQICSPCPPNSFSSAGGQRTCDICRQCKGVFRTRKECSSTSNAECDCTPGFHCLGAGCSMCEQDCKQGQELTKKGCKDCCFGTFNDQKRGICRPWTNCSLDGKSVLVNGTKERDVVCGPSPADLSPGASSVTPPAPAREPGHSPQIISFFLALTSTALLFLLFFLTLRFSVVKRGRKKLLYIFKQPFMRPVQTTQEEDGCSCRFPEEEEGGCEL

B1: Urelumab (antibody, human IgG4 S228P, kappa)
heavy: not shown
light: not shown
notes: also called Urelumab Analog; copies: 2 + 2
- EC50 [1]: 0.316 nM

B2: HER2xHER2x4-1BB-1 (bispecific antibody, human IgG1, kappa)
heavy 1: not shown
light 1: DIQMTQSPSSLSASVGDRVTITCRASQSVQGAVAWYQQKPGKAPKLLIYSASFLYSGVPSRFSGSRSGTDFTLTISSLQPEDFATYYCQQHSTTPPTFGQGTKVEIKRTVAAPSVFIFPPSDEQLKSGRASVVCLLNNFYPREAKVQWKVDNALQSGNSQESVTEQDSKDSTYSLSSRLQLSKADYEKHKVYACEVTHQGLSSPVTKSFNRGEC
heavy 2: not shown
light 2: DIQMTQSPSSLSASVGDRVTITCKASQDVSIGVAWYQQKPGKAPKLLIYSASYRYTGVPSRFSGSGSGTDFTLTISSLQPEDFATYYCQQYYIYPYTFGQGTKVEIKRTVAAPSVFIFPPSDEELKSGTASVQCLLNNFYPREAKVQWKVDNALQSGNSQESVTEQDSKDSTYSLSSELTLSKADYEKHKVYACEVTHQGLSSPVTKSFNRGEC
notes: also called HER2×HER2×4-1BB-1; HER2 × HER2 × 4-1BB-1
- EC50 [2]: 1.06 nM
- EC50 [1]: 6.99 nM
